Assay results taken from the supplement of paper PMC9170038.

Tested on: MS2 coat protein
Experiment: apparent KD of MS2 coat protein; designed switch direction (-1 OFF switch, 1 ON switch): 1; higher = weaker reporter binding
In short: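 The apparent KD reported per design is the median over clusters of curve fits to normalised cluster fluorescence. The RNA switches were transcribed on Illumina chips by stalled E. coli RNA polymerase. SNAP-549-labelled MS2 coat protein was titrated from 0.7 or 1.5 nM, doubling up to 3 µM, in Tris-HCl pH 7.5 buffer containing KCl, MgCl2, BSA, DTT, tRNA and Tween-20, with no input, 200 uM small-molecule ligand, or an oligonucleotide input.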

[1] = input ligand: microRNA oligo, concentration not stated
[2] = Eterna round: R95, input ligand: FMN 200 uM
[3] = Eterna round: R95, input ligand: microRNA oligo, concentration not stated
[4] = Eterna round: R95, input ligand: none

| Sequence | apparent KD of MS2 coat protein (input ligand: FMN 200 uM) [nM] | apparent KD of MS2 coat protein [1] [nM] | apparent KD of MS2 coat protein (input ligand: none) [nM] | apparent KD of MS2 coat protein [2] [nM] | apparent KD of MS2 coat protein [3] [nM] | apparent KD of MS2 coat protein [4] [nM] |
| --- | --- | --- | --- | --- | --- | --- |
| AGCUAGUACCAAGGAUAUACGAACAUGAGGAUCACCCAUGUAUACAUGGUUUAAUGAGACUACAUGUAGAAGGUGGUACUAGCA [SameState NG2 #12] (Eterna round: R96, puzzle: Same State NG 2) | 387 | 338 | 538 |  |  |  |
| GGAGAGAAGUGAGGAUAUGCAUGGAAGACACAUGAGGAUCACCCAUGUGGGAGGGAGACCGGGAGGUAGAAGGCACUGGGAAGA [AK SSNG2-V2-25.1] (Eterna round: R96, puzzle: Same State NG 2) | 425 | 42.3 | 74.2 |  |  |  |
| GGUCCAGCCUGAGCUGGACAAAAGCAUGUACAUGAGGAUCACCCAUGUCAUGUACAAGUUUUUUGCUCGUCUUAAAA [JL mod - D87 - 12] (puzzle: Sensor for hsa-mir-208a) |  |  |  | 35.3 | 10.6 | 38.7 |
| UUAAAGAAGUAAGGAUAUACAUGAGGAUCACUCGUAGAAGGUACUAAACAUGAGGAUCACCCAUGUACCGGUCCGUAGACUGGA [Mat - Same State NG 1 - JL mod - D2] (Eterna round: R96, puzzle: Same State NG 1) | 960 | 248 | 483 |  |  |  |
| AAGAAACAUGAGGAUCACCCAUGUCGAGAGAGACGAGGAUAUCUGAAUCGAUUAGAUUACGGAGAAGGCGUGAAAA [Same State 1.2 (Same State of Confusion2 - minimal change )] (Eterna round: R96, puzzle: Same State 1) | 22.1 | 22 | 27 |  |  |  |
| AGUUGUAAUACAGGAUAUAUAUUAUUUUUAUUUAUAGAAGGGUAAUCACAUGAGGAUCACCCAUGUAUAUACGAGGAAGAAGAG [JMF's solution 2] (Eterna round: R96, puzzle: Same State NG 1) |  | 194 |  |  |  |  |
| ACAUAGGUUUCAGGAUAUGGGUAAAUUCCCAACAUGAGGAUCACCCAUGUCCGUAGGGAUAACAUCCAGAAGGGAAGCCACAUA [MOD Eternabot Solution 1 (Score 87.5)] (Eterna round: R96, puzzle: Same State NG 2) | 89.3 | 100 | 59.4 |  |  |  |
| AAUUCACGAGCACAGGAUAUGCUUGCCAACACAUGAGGAUCACCCAUGUCGGGCUACGAAUAAGAGCAGAAGGGUGACUCAUGAU [Atesusgela] (puzzle: Same State 2) |  |  |  | 16.8 | 19.2 | 13.9 |
| UUGAAGAAUUAAGGAUAUCGAGUACAUAUGUUAAACAUGAGGAUCACCCAUGUGGGUUGCGGUAUCGAGAAGGUAAAUUACAAG [JL SSNG2 1.42] (Eterna round: R96, puzzle: Same State NG 2) | 30.2 | 25.6 | 36.5 |  |  |  |
| GACAAUCUAUCUCAGGAUAUCAUGUCAAAGACAUGAGGAUCACCCAUGUACCAGGAAACUGGUUAUGAGAAGGGAGAUAGAUUGG [Mat - Same State 2 - Mod - D27] (puzzle: Same State 2) |  |  |  | 179 | 15.7 | 5660 |
| UAGAAACAUGAGGAUCACCCAUGUGGGUUAAACACAGGAUAUCAUGCCACACGAUAGGUAUGAGAAGGGUGACCGU [Sodion] (puzzle: Same State 1) |  |  |  | 234 | 79.5 | 53.3 |
| GCUAGGAUAUGACGAGGAUCACCCGUUAGAAGGAGCUUCGGCUAGGAUAUGACGAGGAUCACCCGUUAGAAGGAGCUGUACUCU [pwkr ssNG3 DX 2xF5 +2xFMN.9] (Eterna round: R96, puzzle: Same State NG 3) | 144 | 76.7 | 92.3 |  |  |  |
